# Measurements as given in patent publication US12697350B2, “Methods and compositions for treating a premature termination codon-mediated disorder” (Tevard Biosciences, Inc., priority 2019, dated 2026).
# Where a chain is given by its changes, count along the chain named.
# B1: tRNA-Gln-TTG-3-1-TTA-SUP (nucleic acid)
# chain: GGCCCCATGGTGTAATGGTTAGCACTCTGGACTTTAAATCCAGCGATCCGAGTTCAAATCTCGGTGGGACCT
# modifications: expressed or natural sequence
# B2: tRNA-Gln-CTG-1-1-CTA-SUP (nucleic acid)
# chain: B1 chain with C3T, T34C
# modifications: chemistry not fully specified
# B3: tRNA-Gln-TTG-1-1-TTA-SUP (nucleic acid)
# chain: B1 chain with C3T
# modifications: chemistry not fully specified
# How the values were obtained:
# EGFP-Q69X-TAA reporter [1] = experiment: 100 nt 5′ leader sequence library with GlnTTA suppressor tRNA #163, EGFP-Q69X-TAA reporter, Flp-In-293 cells (FIGS. 30, 31, 32); type: cell-based, human
# Excerpt: FIG. 27 is a schematic representation of the constructs used to test the impact of a 5′ leader sequence on the read-through of a premature termination codon (PTC) by a suppressor tRNA. Constructs contain (i) a 100 bp 5′ leader sequence derived from genomic DNA located upstream of tRNA genes that are highly expressed in HEK293 cells, (ii) a single copy of either the ArgTCA suppressor tRNA #115 (SEQ ID NO: 18) or the GlnTTA suppressor tRNA #163 (SEQ ID NO: 45), and (iii) an RNA polymerase III termination signal (“Term”).
# FIG. 30 is a graph depicting the readthrough activity of the indicated GlnTTA suppressor tRNA expression constructs as measured by flow cytometry in Flp-In-293 cells at ~24 hours post transfection. […]
# FIG. 31 is a graph depicting the readthrough activity of the indicated GlnTTA suppressor tRNA expression constructs as measured by flow cytometry in Flp-In-293 cells at ~24 hours post transfection. […]
# The leader sequences in combination with the ArgTCA suppressor tRNA #115 (SEQ ID NO: 18) or the GlnTTA suppressor tRNA #163 (SEQ ID NO: 45) were tested for PTC readthrough activity by flow cytometry in cell lines co-transfected with an EGFP-R96X-TGA reporter (SEQ ID NO: 31) for ArgTCA constructs or an EGFP-Q69X-TAA reporter (SEQ ID NO: 175) for GlnTTA constructs.
# Neuro-2a cells = type: cell-based, mouse
# Experimental: FIG. 23 is a graph depicting cell viability from FIG. 22 as measured by flow cytometry at ~48 hours post transfection. Neuro-2a cells were transfected with an expression construct containing the EGFP-R96X-TGA reporter (“GFP-PTC”) and either (i) transfected with an expression construct including the ArgTCA suppressor tRNA #115 (SEQ ID NO: 18) at the indicated copy number on the same construct, or (ii) treated with ataluren at the indicated concentration, (iii) treated with gentamicin at the indication concentration, or (iv) treated with G418 at the indicated concentration. For all experimental conditions, cell culture medium was replaced with fresh medium ~6 hour after transfection and the indicated drugs at the indicated concentrations were added at this point. A reporter containing wildtype GFP without a PTC (“WT-GFP”) was used as a control. “Mock” indicates mock transfected cells. “4×TCG” indicates cells transfected with an expression construct that contains four copies of a wild-type Arg-tRNA with a TCG anticodon and the EGFP-R96X-TGA reporter. Cell viability was assessed by flow cytometry using 7-Amino Actinomycin D (7-AAD), a membrane impermeant dye that is generally excluded from viable cells.
# FIG. 34 is a graph depicting cell viability from FIG. 33 as measured by flow cytometry at ~48 hours post transfection. […] Cell viability was assessed by flow cytometry using 7-Amino Actinomycin D (7-AAD), a membrane impermeant dye that is generally excluded from viable cells.
# FIG. 36 is a graph depicting cell viability from FIG. 35 as measured by flow cytometry at ~48 hours post transfection. […] Cell viability was assessed by flow cytometry using 7-Amino Actinomycin D (7-AAD), a membrane impermeant dye that is generally excluded from viable cells. […]
# EGFP-Q69X-TAG reporter = experiment: PTC readthrough of GlnCTA suppressor tRNA #196 versus nonsense suppression drugs, EGFP-Q69X-TAG reporter, Neuro-2a cells (FIG. 35); type: cell-based, mouse; conditions: versus ataluren, gentamicin, G418 (FIG. 35)
# Experimental: FIG. 35 is a graph depicting the percentage of EGFP positive cells as measured by flow cytometry in three independent experiments at ~48 hours post transfection. Neuro-2a cells were transfected with an expression construct containing the EGFP-Q69X-TAG reporter (“EGFP-PTC”) (SEQ ID NO: 176) and either (i) including the GlncTA suppressor tRNA #196 (SEQ ID NO: 178) at the indicated copy number on the same construct, or (ii) treated with ataluren at the indicated concentration, (iii) treated with gentamicin at the indication concentration, or (iv) treated with G418 at the indicated concentration. […]
# (§1) The suppressor tRNAs were tested alongside nonsense suppression drugs translarna (ataluren), gentamicin, and G418 (geneticin). PTC readthrough activity was measured in Neuro-2a cells ~48 hours after transfection with an expression construct containing a CAG:NLS-EGFP (Q69X-TAA) reporter (as described in Example 4, SEQ ID NO: 175) and either (i) including a Gln suppressor tRNA (either #002, tRNA-Gln-TTG-1-1-TTA-SUP, SEQ ID NO: 36, or #196, tRNA-Gln-TTG-1-1-CTA-SUP, SEQ ID NO: 178, both as described in Example 4) at the indicated copy number on the same construct, or (ii) treated with ataluren, (iii) treated with gentamicin, or (iv) treated with G418. […] PTC readthrough activity was measured as the percentage of EGFP positive cells as measured by flow cytometry. […]
# EGFP-Q69X-TAA reporter [2] = experiment: PTC readthrough of GlnTTA suppressor tRNA #002 versus nonsense suppression drugs, EGFP-Q69X-TAA reporter, Neuro-2a cells (FIG. 33); type: cell-based, mouse; conditions: versus ataluren, gentamicin, G418 (FIG. 33)
# Experimental: FIG. 33 is a graph depicting the percentage of EGFP positive cells as measured by flow cytometry in three independent experiments at ~48 hours post transfection. Neuro-2a cells were transfected with an expression construct containing the EGFP-Q69X-TAA reporter (“EGFP-PTC”) (SEQ ID NO: 175) and either (i) including the GlnTTA suppressor tRNA #002 (SEQ ID NO: 36) at the indicated copy number on the same construct, or (ii) treated with ataluren at the indicated concentration, (iii) treated with gentamicin at the indication concentration, or (iv) treated with G418 at the indicated concentration. […]
# as §1
molecule,measurement,setting,value
B1,readthrough activity when combined with the identified leader sequences,EGFP-Q69X-TAA reporter [1],showed high readthrough activity
B2,cell viability,Neuro-2a cells,not accompanied by a decrease in cell viability
same,PTC readthrough compared with nonsense suppression drugs,EGFP-Q69X-TAG reporter,greater readthrough than any of the nonsense suppression drugs
B3,PTC readthrough compared with nonsense suppression drugs,EGFP-Q69X-TAA reporter [2],greater readthrough than any of the nonsense suppression drugs
same,cell viability,Neuro-2a cells,not accompanied by a decrease in cell viability
